What was measured:
human tenascin-C (human) [1] = biological target: human tenascin-C (human) (UniProt P24821); assay: ELISA, tenascin 5 µg/ml
human tenascin-C (human) [2] = biological target: human tenascin-C (human) (UniProt P24821); assay: BIAcore

Sequence of human tenascin-C (human) (P24821 23-2201 limits assumed): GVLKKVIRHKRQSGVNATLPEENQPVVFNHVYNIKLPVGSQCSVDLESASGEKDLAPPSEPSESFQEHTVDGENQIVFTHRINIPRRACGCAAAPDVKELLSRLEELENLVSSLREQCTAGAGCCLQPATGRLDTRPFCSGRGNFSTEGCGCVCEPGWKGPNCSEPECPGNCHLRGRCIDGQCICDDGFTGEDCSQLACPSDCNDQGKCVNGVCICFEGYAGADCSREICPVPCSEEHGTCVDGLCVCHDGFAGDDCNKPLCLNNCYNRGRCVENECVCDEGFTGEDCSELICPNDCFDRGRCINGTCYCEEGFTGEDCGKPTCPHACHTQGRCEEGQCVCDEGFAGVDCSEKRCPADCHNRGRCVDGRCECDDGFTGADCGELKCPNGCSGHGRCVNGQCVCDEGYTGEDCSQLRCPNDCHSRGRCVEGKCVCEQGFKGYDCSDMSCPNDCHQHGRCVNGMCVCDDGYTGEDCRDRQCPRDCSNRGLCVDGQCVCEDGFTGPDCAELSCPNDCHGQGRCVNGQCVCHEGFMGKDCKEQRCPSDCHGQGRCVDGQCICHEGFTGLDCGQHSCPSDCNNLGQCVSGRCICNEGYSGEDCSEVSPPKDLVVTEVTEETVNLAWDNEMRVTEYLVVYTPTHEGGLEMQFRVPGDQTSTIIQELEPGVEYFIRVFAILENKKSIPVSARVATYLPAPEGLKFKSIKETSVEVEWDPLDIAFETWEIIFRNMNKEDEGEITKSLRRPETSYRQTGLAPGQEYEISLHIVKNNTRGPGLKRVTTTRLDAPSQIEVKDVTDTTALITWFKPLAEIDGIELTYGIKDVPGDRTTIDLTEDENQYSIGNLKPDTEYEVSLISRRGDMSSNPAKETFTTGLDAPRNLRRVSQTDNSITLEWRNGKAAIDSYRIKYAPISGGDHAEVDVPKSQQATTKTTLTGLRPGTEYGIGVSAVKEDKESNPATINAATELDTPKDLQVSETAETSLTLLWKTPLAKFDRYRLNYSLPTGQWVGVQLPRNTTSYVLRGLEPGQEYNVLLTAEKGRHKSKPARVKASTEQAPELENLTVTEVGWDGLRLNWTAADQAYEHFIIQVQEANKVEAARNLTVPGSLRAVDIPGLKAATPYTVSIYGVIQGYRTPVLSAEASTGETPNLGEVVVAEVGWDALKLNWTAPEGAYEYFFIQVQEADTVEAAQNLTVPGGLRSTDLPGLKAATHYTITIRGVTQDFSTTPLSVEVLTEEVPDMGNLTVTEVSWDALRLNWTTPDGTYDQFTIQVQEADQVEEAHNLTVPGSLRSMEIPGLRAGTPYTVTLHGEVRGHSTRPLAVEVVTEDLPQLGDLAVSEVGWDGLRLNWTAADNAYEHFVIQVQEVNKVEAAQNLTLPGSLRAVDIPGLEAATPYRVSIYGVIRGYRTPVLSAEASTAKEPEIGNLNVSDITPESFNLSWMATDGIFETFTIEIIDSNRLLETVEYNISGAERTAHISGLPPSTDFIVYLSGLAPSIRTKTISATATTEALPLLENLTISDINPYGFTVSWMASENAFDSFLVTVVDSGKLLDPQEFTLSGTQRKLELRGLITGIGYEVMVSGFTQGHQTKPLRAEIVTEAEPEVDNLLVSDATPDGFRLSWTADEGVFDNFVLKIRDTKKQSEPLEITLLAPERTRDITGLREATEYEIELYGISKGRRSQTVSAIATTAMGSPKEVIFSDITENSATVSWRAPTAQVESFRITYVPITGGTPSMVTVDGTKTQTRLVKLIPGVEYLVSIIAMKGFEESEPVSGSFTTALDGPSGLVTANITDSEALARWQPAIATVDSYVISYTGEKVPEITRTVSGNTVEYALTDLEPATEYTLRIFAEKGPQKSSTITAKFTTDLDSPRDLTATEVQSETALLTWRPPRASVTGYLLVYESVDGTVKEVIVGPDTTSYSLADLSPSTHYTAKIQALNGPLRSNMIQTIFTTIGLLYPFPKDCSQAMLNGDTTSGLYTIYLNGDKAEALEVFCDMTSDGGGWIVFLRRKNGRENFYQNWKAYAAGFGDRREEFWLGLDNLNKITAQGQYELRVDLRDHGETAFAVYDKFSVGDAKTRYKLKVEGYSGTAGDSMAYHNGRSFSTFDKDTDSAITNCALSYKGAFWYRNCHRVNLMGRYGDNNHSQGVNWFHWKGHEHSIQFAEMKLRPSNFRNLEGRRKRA

## BC4 anti-tenascin monoclonal antibody
Human tenascin-C (human) [1]
  EC50 (read off the curve): 0.2 µg/mL
Human tenascin-C (human) [2]
  Kd: 4.9 nM
